Assay results: publication PMC7289600, “Signaling diversity enabled by Rap1-regulated plasma membrane ERK with distinct temporal dynamics” (eLife, 2020)
Numbering of substitutions follows the chain as printed.

Molecular target: T1, Rap1-binding domain (RBD) from RalGDS fused to the acceptor fluorophore Ypet (second chain of Rap1A/B-FLARE) (UniProt Q12967 798-885)
T1 construct: also called RalGDS RBD; source: PC12 cells, transfected (Lipofectamine 2000), in living cells
T1 sequence (looked up): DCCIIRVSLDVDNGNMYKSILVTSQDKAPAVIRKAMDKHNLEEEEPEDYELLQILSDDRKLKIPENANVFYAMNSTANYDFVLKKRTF
Assay: FRET or BRET; dual-chain Rap1A/B-FLARE biosensors expressed in living PC12 cells; EGF added at time 0; yellow over cyan (Y/C) emission ratio imaging in HBSS at 37°C; increase abrogated by co-expression of Rap1GAP or by GGTI-298
Conditions: partners not purified

B1: Rap1A fused to the donor fluorophore mCerulean3 (Rap1A chain of the dual-chain biosensor Rap1A-FLARE) (natural protein, UniProt P62834 1-184, looked up)
chain: MREYKLVVLGSGGVGKSALTVQFVQGIFVEKYDPTIEDSYRKQVEVDCQQCMLEILDTAGTEQFTAMRDLYMKNGQGFALVYSITAQSTFNDLQDLREQILRVKDTEDVPMILVGNKCDLEDERVVGKEQGQNLARQWCNCAFLESSAKSKINVNEIFYDLVRQINRKTPVEKKKPKKKSCLLL
notes: Rap1A, GTPase of the Ras family; plasmid provided by Klaus Hahn; source: PC12 cells, transfected (Lipofectamine 2000), in living cells; not shown: mCerulean3, N-terminal, kept
  increase in Y/C emission ratio (FRET) after EGF: 25.4%

B2: Rap1B fused to the donor fluorophore mCerulean3 (Rap1B chain of the dual-chain biosensor Rap1B-FLARE) (natural protein, UniProt P61224 1-184, looked up)
chain: B1 chain with C48A, E107D, C139N, E172P, K173G, K175A, P176R, K179S, L182Q
notes: Rap1B, GTPase of the Ras family; plasmid provided by Klaus Hahn; source: PC12 cells, transfected (Lipofectamine 2000), in living cells; not shown: mCerulean3, N-terminal, kept
  increase in Y/C emission ratio (FRET) after EGF: 26%
